Test results as given in patent US20150253341A1 (Merck Sharp & Dohme, published 2015).

Biological target: human Tau protein (human, UniProt P10636-8 1-441, limits assumed)
Assay: method not stated

Chain of human Tau protein (P10636 other isoform, or with tags, fused parts or gaps limits assumed): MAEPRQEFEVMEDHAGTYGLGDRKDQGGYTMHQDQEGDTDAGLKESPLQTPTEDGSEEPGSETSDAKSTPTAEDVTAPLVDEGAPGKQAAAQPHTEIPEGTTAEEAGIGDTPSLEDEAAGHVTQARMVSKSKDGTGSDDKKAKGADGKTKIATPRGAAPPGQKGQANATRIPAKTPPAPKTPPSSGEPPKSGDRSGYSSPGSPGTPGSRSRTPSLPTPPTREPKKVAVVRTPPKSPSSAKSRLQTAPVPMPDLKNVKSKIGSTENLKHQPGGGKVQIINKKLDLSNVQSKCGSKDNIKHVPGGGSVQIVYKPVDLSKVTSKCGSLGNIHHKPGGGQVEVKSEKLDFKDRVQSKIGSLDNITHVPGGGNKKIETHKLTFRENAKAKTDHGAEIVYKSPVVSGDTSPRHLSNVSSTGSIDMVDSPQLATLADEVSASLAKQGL

B1: mouse monoclonal anti-Tau antibody clone 13A6 (antibody, V domains shown)
VH: EVQLQQSGAELVRPGASVKLPCTASGFNIKDDYMNWVMQRPERGLEWIGWIDPENGDTAYASKFQGKATMTADTSSNTAYLQLSSLTSEDTAVYYCTSGGRFDYWGQGTSLTVSS
VL: DVLMTQTPLSLPVSLGDQASISCRSSQSIVHSNGSTYLEWYLQKPGQSPKLLIYKVSNRFSGVPDRFSGSGSGTDFTLKINRVEAEDLGVYYCFQGSHVPWTFGGGTKLEIK
notes: Mouse monoclonal from a hybridoma; also called mAb 13A6; antibody 13A6
- Kd: 9.7 nM
